The source of these data is PMC10362037.

This experiment addresses SARS-CoV-2 Omicron (B.1.1.529) Spike S1 (Sino Biological, 40591-V08H41) (SARS-CoV-2). Description: SPR.

In general, Kd refers to the concentration at which binding is half-saturated.

“Human integrin αvβ3 (R&D Systems, 3817-AV-050) (from UniProt P06756 31-1048; P05106 27-718) (complex)” showed a Kd of 0.0694 µM.
